The target of the experiment is MATOUAmDH2 (native amine dehydrogenase from the Marine Atlas of Tara Oceans Unigenes, MATOUv1). Briefly: crystal structure; complex with NADP+; space group P2(1)2(1)2(1); four molecules in the asymmetric unit, two dimers (A/D and B/C).

One may read the stoichiometry N as the number of molecules, sites or subunits per partner or assembly. “MATOUAmDH2 (native amine dehydrogenase from the Marine Atlas of Tara Oceans Unigenes, MATOUv1) (enzyme)” registered a stoichiometry N of 2.

For the origin of these results see publication PMC9325545, “Structure and Mutation of the Native Amine Dehydrogenase MATOUAmDH2” (Chembiochem, 2022).
